Laboratory results as given in patent US20230059489A1 (Pfizer, published 2023).
Where a chain is given by its changes, count along the chain named.

B1: P4F6 (IgG format) (antibody, V domains shown)
VH: QVQLVQSGAEVKKPGSSVKVSCKASGGTFGSYGISWVRQAPGQGLEWMGGIIPIFGTVTYAQKFQGRVTITADESTRTAYMELSSLRSEDTAVYYCARDSWSGATGASDTWGQGTLVTVSS
VL: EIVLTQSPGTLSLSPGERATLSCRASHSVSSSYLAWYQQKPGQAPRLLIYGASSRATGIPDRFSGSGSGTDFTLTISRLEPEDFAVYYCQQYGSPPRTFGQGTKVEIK
notes: IgG format, captured by anti-human Fc
B2: P5F7 (IgG format) (antibody, V domains shown)
VH: EVQLLESGGGLVQPGGSLRLSCAASGFTFSSYAMNWVRQAPGKGLEWVSSISGGGRSTYYADSVKGRFTISRDNSKNTLYLQMNSLRAEDTAVYYCARDLSPSDVGWGYGFDIWGQGTLVTVSS
VL: EIVLTQSPATLSLSPGERATLSCRASQSVSSNLAWYQQKPGQAPRLLIYDTFTRATGIPARFSGSGSGTDFTLTISRLEPEDFAVYYCQQYGSSPPTFGQGTRLEIK
notes: IgG format, captured by anti-human Fc; the VLs differ at the N-terminus; the first entry is used
B3: P4C7 (IgG format) (antibody, V domains shown)
VH: QVQLVQSGAEVKKPGSSVKVSCKASGGTFSSYTISWVRQAPGQGLEWMGGIIPAFGIANYAQKFQGRVTITADKSTSTAYMELSSLRSEDTAVYYCAKGGSYSLDYFDIWGQGTLVTVSS
VL: EIVLTQSPGTLSLSPGERATLSCRASQYVSASLLAWYQQKPGQAPRLLIYGASTRATGIPDRFSGSGSGTDFTLTISRLEPEDFAVYYCQQYARSSTFGQGTKVEIK
notes: as for B1
B4: P4H11 (IgG format) (antibody, V domains shown)
VH: B2 VH
VL: B3 VL with Y28S, A31N, S32T, L33Y, G51D, A52T, T54S, A93G, R94S, S96L
notes: as for B1
B5: P3A1 (IgG format) (antibody, V domains shown)
VH: QVQLVQSGAEVKKPGSSVKVSCKASGGTFSSYDISWVRQAPGQGLEWMGGIIPVSGRANYAQKFQGRVTITTDKSTSTAYMELSSLRSEDTAVYYCARVRPTYWPLDYWGQGTLVTVSS
VL: not shown
notes: as for B1
B6: P12B6 (IgG format) (antibody, V domains shown)
VH: QVQLVQSGAEVKKPGSSVKVSCKASGGTFMSYAISWVRQAPGQGLEWMGGIIPIFGIANYAQKFQGRVTITADKSTSTAYMELSSLRSEDTAVYYCARETLIYPIPFELWGQGTLVTVSS
VL: EIVLTQSPGTLSLSPGERATLSCRASQIVSSSYLAWYQQKPGQAPRLLIYGASSRASGIPDRFSGSGSGTDFTLTISRLEPEDFAVYYCQQYGGSPYTFGQGTKVEIK
notes: as for B1
B7: P1B4 (IgG format) (antibody, V domains shown)
VH: QVQLVQSGAEVKKPGSSVKVSCKASGGVFSRYALSWVRQAPGQGLEWMGGIIPMLGFANYAQKFQGRVTITADESTSTAYMELSSLRSEDTAVYYCATLDFGALDYWGQGTLVTVSS
VL: B6 VL with I28S, S30P, S31N, S32E, Y33Q, G51D, S57T, G94S, S95P, Y97L
notes: as for B1
B8: P1B11 (IgG format) (antibody, V domains shown)
VH: QVQLVQSGAEVKKPGSSVKVSCKASGGTFRSFDISWVRQAPGQGLEWMGRIIPILGYANYAQKFQGRVTITADESTSTAYMELSSLRSEDTAVYYCASDLGAPWAGYPFDPWGQGTLVTVSS
VL: B6 VL with I28S, Y33E, G51D, S57T, G93D, G94S, Y97L
notes: as for B1
B9: P3E10 (IgG format) (antibody, V domains shown)
VH: QVQLVQSGAEVKKPGSSVKVSCKASGGTFSSYAIQWVRQAPGQGLEWMGGIVGSWGLANYAQKFQGRVTITTDKSTSTAYMELSSLRSEDTAVYYCATSAFGELASWGQGTLVTVSS
VL: B6 VL with I28S, S30P, Y33Q, G51D, S57T, G94S, Y97L
notes: as for B1
B10: P8B6 (IgG format) (antibody, V domains shown)
VH: QVQLVQSGAEVKKPGSSVKVSCKASGGTFSSYAVSWVRQAPGQGLEWMGGIIPIFGIANYAQKFQGRVTITADTSTSTAYMELSSLRSEDTAVYYCAIEGIGGDLRYDGYDAWGQGTLVTVSS
VL: B6 VL with I28S, S31H, S54F, S57A, G94S, S95D
notes: as for B1
B11: P1A5 (IgG format) (antibody, V domains shown)
VH: B7 VH
VL: EIVLTQSPGTLSLSPGERATLSCRASQAVDSSDLAWYQQKPGQAPRLLIYDAYTRPSGIPDRFSGSGSGTDFTLTISRLEPEDFAVYYCQQYGSSPLTFGGGTKLEIK
notes: IgG format, captured by anti-human Fc; the entry printed as P1A5 is used
B12: P9F1 (IgG format) (antibody, V domains shown)
VH: EVQLLESGGGLVQPGGSLRLSCAASGFIFSSFAMSWVRQAPGKGLEWVSDISGSGASTYYADSVKGRFTISRDNSKNTLYLQMNSLRAEDTAVYYCASASGGSGSYWPYMDPWGQGTLVTVSS
VL: QSVLTQPPSASGTPGQRVTISCSGSGSNIGSNYVYWYQQLPGTAPKLLIYRNNQRPSGVPDRFSGSKSGTSASLAISGLRSEDEADYYCAAWDGSLSRPVFGTGTKLTVL
notes: as for B1
B13: P15F7 (IgG format) (antibody, V domains shown)
VH: EVQLLESGGGLVQPGGSLRLSCAASGFTFNNYAMNWVRQAPGKGLEWVSVISGSGGTTYYADSVKGRFTISRDNSKNTLYLQMNSLRAEDTAVYYCASGIWDLRYWGQGTLVTVSS
VL: DIQMTQSPSSLSASVGDRVTITCRASQSISTYLNWYQQKPGKAPKLLIYAASNLQSGVPSRFSGSGSGTDFTLTISSLQPEDFATYYCQQSYSIPLTFGQGTKVEIK
notes: as for B1
B14: P14G2 (IgG format) (antibody, V domains shown)
VH: B13 VH with N30S, A33V, V50A, G56A, A97V, I100L, D102A, L103G, R104G, Y105I
VL: B13 VL with T31S, A50D, N53D, S56R, S93N, I94T, L96W
notes: as for B1

How the values were obtained:
mouse FLT3 (mFlt3) = biological target: T1, mouse FLT3 (mFlt3) (mouse (printed as mFlt3), UniProt Q00342 28-544, limits assumed); assay: SPR, Table 6, IgG format, mFlt3 column; set-up for mFlt3 not described
T1 construct: Construct not described
T1 sequence (looked up): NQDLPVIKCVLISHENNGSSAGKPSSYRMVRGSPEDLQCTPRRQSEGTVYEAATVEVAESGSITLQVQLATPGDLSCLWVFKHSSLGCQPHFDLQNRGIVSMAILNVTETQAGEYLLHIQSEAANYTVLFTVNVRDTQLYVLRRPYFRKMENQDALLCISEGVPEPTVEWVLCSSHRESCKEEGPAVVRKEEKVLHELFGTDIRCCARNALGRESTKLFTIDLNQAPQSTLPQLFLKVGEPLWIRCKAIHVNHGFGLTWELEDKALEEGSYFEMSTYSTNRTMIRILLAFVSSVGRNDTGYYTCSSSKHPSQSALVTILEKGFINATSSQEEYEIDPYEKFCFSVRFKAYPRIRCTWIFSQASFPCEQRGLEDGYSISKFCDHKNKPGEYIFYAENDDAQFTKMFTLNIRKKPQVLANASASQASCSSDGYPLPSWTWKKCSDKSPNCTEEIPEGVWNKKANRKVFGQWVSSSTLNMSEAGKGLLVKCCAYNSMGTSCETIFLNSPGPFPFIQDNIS

human FLT3 (hFLT3) = biological target: T2, human FLT3 (hFLT3) (human, UniProt P36888 27-543); assay: SPR (Biacore T200), 37 C; IgG captured on anti-human Fc, hFLT3 as analyte
T2 construct: also called huFlt3; Fms-Like Tyrosine Kinase 3
T2 sequence (looked up): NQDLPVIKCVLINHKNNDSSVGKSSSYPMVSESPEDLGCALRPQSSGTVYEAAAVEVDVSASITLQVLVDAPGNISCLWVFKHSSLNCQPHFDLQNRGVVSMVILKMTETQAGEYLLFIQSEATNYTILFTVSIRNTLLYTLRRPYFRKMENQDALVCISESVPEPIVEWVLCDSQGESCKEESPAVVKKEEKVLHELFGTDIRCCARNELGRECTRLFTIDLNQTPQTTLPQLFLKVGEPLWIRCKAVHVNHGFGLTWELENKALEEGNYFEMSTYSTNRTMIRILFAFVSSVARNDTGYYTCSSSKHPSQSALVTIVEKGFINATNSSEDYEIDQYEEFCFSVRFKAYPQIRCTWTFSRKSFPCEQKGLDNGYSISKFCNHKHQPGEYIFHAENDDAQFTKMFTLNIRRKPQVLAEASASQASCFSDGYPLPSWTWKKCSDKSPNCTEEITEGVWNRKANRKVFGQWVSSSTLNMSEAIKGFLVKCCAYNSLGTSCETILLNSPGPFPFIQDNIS
Procedure: All experiments were performed on a Biacore T200 surface Plasmon resonance biosensor (GE Lifesciences, Piscataway N.J.).
The sensor chip preparation was performed at 25° C. with a running buffer of 10 mM HEPES, 150 mM NaCl, 0.05% (v/v) Tween-20, pH 7.4. An anti-human Fc sensor chip was made by activating all flow cells of a Biacore CM4 sensor chip with a 1:1 (v/v) mixture of 400 mM EDC and 100 mM NHS for 7 minutes, at a flow rate of 10 μL/min. An anti-human Fc reagent (Goat Anti-Human IgG Fc, Southern Biotech Catalog #2081-01) was diluted to 30 μg/mL in 10 mM Sodium Acetate pH 4.5 and injected on all flow cells for 7 minutes at 20 μL/min. All flow cells were blocked with 100 mM ethylenediamine in 150 mM Borate buffer pH 8.5 for 7 minutes at 10 μL/min.
The experiments were performed at 37° C. using a running buffer of 10 mM HEPES, 150 mM NaCl, 0.05% (v/v) Tween-20, pH 7.4, 1 mg/mL BSA. FLT3 antibodies were captured from undiluted supernatants onto downstream flow cells (flow cells 2, 3 and 4) at a flow rate of 10 μL/min for 1 minute. Different antibodies were captured on each flow cell. Flow cell 1 was used as a reference surface. Following capture of FLT3 antibodies, analyte (buffer, hFLT3) was injected at 30 μL/min on all flow cells for two minutes. After the analyte injection, dissociation was monitored for 10 minutes followed by regeneration of all flow cells with three 1-minute injections of 75 mM Phosphoric Acid. For each captured FLT3 antibody, the following analyte injections were performed: buffer, 11 nM hFLT3, 33 nM hFLT3, 100 nM hFLT3 and 300 nM hFLT3. Buffer cycles were collected for each captured FLT3 antibody for double-referencing purposes (double-referencing as described in Myszka, D. G. Improving biosensor analysis. J. Mol. Recognit. 12, 279-284 (1999)). The double-referenced sensorgrams were fit globally to a simple 1:1 Langmuir with mass transport binding model.

| Kd (mouse FLT3 (mFlt3)) | Kd (human FLT3 (hFLT3)) | koff (human FLT3 (hFLT3)) | kon (human FLT3 (hFLT3)) | t1/2 (human FLT3 (hFLT3)) | Binder |
| --- | --- | --- | --- | --- | --- |
| 36.1 nM | 25 nM | 0.0035 s⁻¹ | 140000 M⁻¹ s⁻¹ | 3.3 min | B1 |
| – | 0.24 nM | 0.000152 s⁻¹ | 636000 M⁻¹ s⁻¹ | 76 min | B2 |
| 402 nM | 7.7 nM | 0.0012 s⁻¹ | 160000 M⁻¹ s⁻¹ | 9.3 min | B3 |
| – | 233 nM | 0.0144 s⁻¹ | 61800 M⁻¹ s⁻¹ | 1 min | B4 |
| – | 64 nM | 0.006 s⁻¹ | 95000 M⁻¹ s⁻¹ | 1.9 min | B5 |
| – | 84 nM | 0.009 s⁻¹ | 110000 M⁻¹ s⁻¹ | 1.3 min | B6 |
| – | 32 nM | 0.0058 s⁻¹ | 180000 M⁻¹ s⁻¹ | 2 min | B7 |
| – | 45 nM | 0.0055 s⁻¹ | 120000 M⁻¹ s⁻¹ | 2.1 min | B8 |
| – | 106 nM | 0.019 s⁻¹ | 180000 M⁻¹ s⁻¹ | 0.6 min | B9 |
| – | 2.5 nM | 0.00023 s⁻¹ | 93000 M⁻¹ s⁻¹ | 51 min | B10 |
| – | 0.19 nM | 0.000347 s⁻¹ | 1.78e+06 M⁻¹ s⁻¹ | 33 min | B11 |
| – | 127 nM | 0.023 s⁻¹ | 180000 M⁻¹ s⁻¹ | 0.5 min | B12 |
| – | 38 nM | 0.0055 s⁻¹ | 140000 M⁻¹ s⁻¹ | 2.1 min | B13 |
| – | 8 nM | 0.0011 s⁻¹ | 140000 M⁻¹ s⁻¹ | 10.7 min | B14 |
